# Reference: the RNAGym collection of RNA variant scans (doi:10.1093/molbev/msab373)
# B1: Azoarcus group I ribozyme (parent)
# chain: GUGCCUUGCGCCGGGAAACCACGCAAGGGAUGGUGUCAAAUUCGGCGAAACCUAAGCGCCCGCCCGGGCGUAUGGCAACGCCGAGCCAAGCUUCGGCGCCUGCGCCGAUGAAGGUGUAGAGACUAGACGGCACCCACCUAAGGCAAACGCUAUGGUGAAGGCAUAGUCCAGGGAGUGGCGAAAGUCACACAAACCGG
# Variants of: B1
# Assay: reverse-splicing fitness (ratio to wild type); higher = more active; in vitro selection; Mg2+ level not given
# Method in brief: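 An in vitro group I ribozyme library with randomized positions was T7-transcribed and gel-purified. In triplicate, 10 pmol RNA in EPPS pH 7.5 was reacted with 50 pmoles of a 30-nt RNA substrate for 1 h at 37 °C across several added MgCl2 levels (1–48 mM), then stopped with EDTA. Products were reverse transcribed from a substrate-complementary primer, PCR-amplified and sequenced (HiSeq 4000). Fitness is a variant's read proportion after selection over that before, normalised to wild type.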
row,Variant,reverse-splicing fitness
1,C82A A111U A120U A145G C150U C169A U176A,0.00815
2,C82A A111U A120U A145G C150U C169A U176G,0.00259
3,C82A A111U A120U A145G C150U C169A U176C,0.00423
4,C82A A111U A120U A145G,0.0209
5,C82A A111U A120U A145U,0.0216
6,C82A A111U A120U A145G C150A U176A,0.00879
7,C82A A111U A120U A145G C150A U176C,0.00989
8,C82A A111U A120U A145G C150A U176G,0.00328
9,C82A A111U A120U A145G C150A C169A,0.00807
10,C82A A111U A120U A145G C150A C169G,0.00618
11,C82A A111U A120U A145G C150A C169U,0.00475
12,C82A A111U A120U C169G U176A,0.00417
13,C82A A111U A120U C169G U176G,0.00236
14,C82A A111U A120U C169G U176C,0.00453
15,C82A A111U A120U A145G C150A C169G U176C,0.00688
16,C82A A111U A120U A145G C150A C169G U176G,0.003
17,C82A A111U A120U A145G C150A C169G U176A,0.0104
18,C82A A111U A120U C150U C169A U176A,0.00575
19,C82A A111U A120U C150U C169A U176C,0.00344
20,C82A A111U A120U C150U C169A U176G,0.00226
21,C82A A111U A145C C150U C169A U176A,0.0133

row,Variant,reverse-splicing fitness
1,C82A A111U A145C C150U C169A U176C,0.00736
2,C82A A111U A145C C150U C169A U176G,0.00747
3,C82A A111U A120U A145U C169G,0.00304
4,C82A A111U A120U A145U C169U,0.0039
5,C82A A111U A120U A145U C169A,0.00249
6,C82A A111U A120U A145U C150U C169G U176A,0.00409
7,C82A A111U A120U A145U C150U C169G U176G,0.00224
8,C82A A111U A120U A145U C150U C169G U176C,0.00351
9,C82A A111U A120U A145U C169U U176A,0.00289
10,C82A A111U A120U A145U C169U U176C,0.00325
11,C82A A111U A120U A145U C169U U176G,0.00208
12,C82A A111U A120U A145C C150G,0.0059
13,C82A A111U A120U A145C C150U,0.00779
14,C82A A111U A120U A145G C150U C169U U176A,0.00537
15,C82A A111U A120U A145G C150U C169U U176G,0.00286
16,C82A A111U A120U A145G C150U C169U U176C,0.00506
17,C82A A111U A120U A145C C150U U176G,0.00319
18,C82A A111U A120U A145C C150U U176C,0.00533
19,C82A A111U A120U A145C C150U U176A,0.00482
20,C82A A111U A120U A145C C169A,0.00224
21,C82A A111U A120U A145C C169U,0.00338

row,Variant,reverse-splicing fitness
1,C82A A111U A120U A145C C169G,0.00342
2,C82A A111U A120U A145U C150U,0.0173
3,C82A A111U A120U A145U C150A,0.00619
4,C82A A111U A120U A145U C150G,0.00631
5,C82A A111U A120U A145C C169A U176A,0.00304
6,C82A A111U A120U A145C C169A U176C,0.00227
7,C82A A111U A120U A145C C169A U176G,0.00209
8,C82A A111U A145G,0.313
9,C82A A111U A145C,0.28
10,C82A A111U A120U A145C C150U C169U,0.00328
11,C82A A111U A120U A145C C150U C169G,0.0029
12,C82A A111U A120U A145C C150U C169A,0.00277
13,C82A A111U A120U A145U U176G,0.00335
14,C82A A111U A120U A145U U176A,0.0073
15,C82A A111U A120U A145U U176C,0.0117
16,C82A A111U A120U A145U C150U C169A U176G,0.00243
17,C82A A111U A120U A145U C150U C169A U176C,0.00305
18,C82A A111U A120U A145U C150U C169A U176A,0.00366
19,C82A A111U A145C C150G C169U U176C,0.0103
20,C82A A111U A145C C150G C169U U176G,0.00633
21,C82A A111U A145C C150G C169U U176A,0.00896

row,Variant,reverse-splicing fitness
1,C82A A111U A120U A145U C150G C169G U176G,0.00241
2,C82A A111U A120U A145U C150G C169G U176C,0.00281
3,C82A A111U A120U A145U C150G C169G U176A,0.00327
4,C82A A111U A120U C150G U176C,0.00606
5,C82A A111U A120U C150G U176A,0.00499
6,C82A A111U A120U C150G U176G,0.00265
7,C82A A111U A145C C169G,0.00993
8,C82A A111U A145C C169U,0.0123
9,C82A A111U A145C C169A,0.00733
10,C82A A111U A145G C150G,0.0263
11,C82A A111U A145G C150A,0.0371
12,C82A A111U A145C C150G C169A U176C,0.0076
13,C82A A111U A145C C150G C169A U176G,0.00755
14,C82A A111U A145C C150G C169A U176A,0.0086
15,C82A A111U A120U A145C C150G C169G U176A,0.00351
16,C82A A111U A120U A145C C150G C169G U176G,0.00242
17,C82A A111U A120U A145C C150G C169G U176C,0.0024
18,C82A A111U A120U A145G C150G,0.00842
19,C82A A111U A120U A145G C150A,0.00899
20,C82A A111U A120U A145G C150U,0.0195
